Results reported in patent US20130029913A1, “ARTIFICIAL PLATELETS” (priority 2005, published 2013).
Values belong to the molecule of their own block, whether it stands above or below them. Primed or numbered codes have the meaning given here. No end group written: not given here. MAL″ = maleimide moiety on the C-terminal lysine; MAL = maleimide moiety

Experiments:
Fibrinogen [1] = molecular target: T1, Fibrinogen (Homo sapiens, UniProt P02679); experiment: Clot formation in fibrinogen in response to thrombin (turbidity, PAP-4); type: biochemical; set-up: purchased SNBTS
Protocol: Clot formation was determined by a […] in turbidity using the Platelet Aggregation Profiler® PAP-4 (BioData Corporation, PA) as follows; Peptide C linked microparticles were prepared as described in Example 5 at a stock concentration of 2.5 mg/ml in Hepes buffered saline (HBS). The baseline optical density was set with fibrinogen (SNBTS) solution at 3 mg/ml in HBS. Fibrinogen solutions (205 μl) were pre-warmed to 37° C. for 1 min before the addition of microparticles (25 μl), with the stir bar rate set at 900 rpm. After two min 20 μL of human thrombin (Sigma) stock solution was added to give a final concentration of 0.032 U/ml.

plasma [2] = experiment: Clot formation in plasma in response to thrombin (turbidimetric, PAP-4); type: biochemical
Protocol: Microparticle clot formation in plasma was determined turbidimetrically using the Platelet Aggregation Profiler® PAP-4 (BioData Corporation, PA) as described above.
(§1) Peptide C modified microparticles were prepared as described in Example 5 at a stock concentration of 2.5 mg/ml in HBS. The baseline optical density was set with plasma, which had been prepared from citrated blood. Plasma samples (205 μl) were pre-warmed to 37° C. for 1 min before the addition of microparticles (25 μl), with the stir bar rate set at 900 rpm. After two minutes 20 uL of human thrombin (Sigma) stock solution was added to the reaction to give a final thrombin concentration of 0.25 U/ml.

Thrombocytopenic blood = experiment: Platelet aggregation in thrombocytopenic blood activated by ADP (impedance aggregometer); type: cell-based; details: microparticles pre-exposed to thrombin, 6 min
Protocol: Platelet aggregation in the presence of peptide C modified microparticles was measured using a Multiplatelet impedance aggregometer (Multiplate® Dynabyte medical, Munich).
Peptide C modified microparticles were prepared as described in Example 5 at a stock concentration of 2.5 mg/ml in HBS. The microparticles (0.75 mg) were pre-incubated for 1 h with 1 U/ml human thrombin (Sigma) in HBS (total volume 0.3 ml). To inhibit thrombin activity hirudin (Sigma) was added at a final concentration of 5 U/ml. The reaction was centrifuged at 9300 g for 5 min and the supernatant was discarded. The microparticles were resuspended in HBS to a concentration of 2.5 mg/ml.
Thrombocytopenic blood was prepared from citrated blood as follows:
Platelets were removed by centrifuging whole blood at 163 g for 20 min and discarding the platelet rich upper layer. The upper platelet rich layer was replaced by plasma that was isolated as the supernatant after centrifuging whole blood at 1800 g for 30 min.
To monitor electrical impedance; to each electrode well 0.3 ml of blood was incubated at 37° C. with microparticles (0.15 mg) and saline to give a total volume of 0.6 ml. Aggregation was recorded immediately after the addition of 30 μl of activator adenosine diphosphate solution (0.1 mM). Aggregation was recorded for 6 min; results in FIG. 9 are expressed in arbitrary units of final aggregation.

plasma [3] = experiment: Clot formation in plasma after microparticles pre-incubated with thrombin (turbidimetric, PAP-4); type: biochemical
Protocol: Clot formation as monitored in plasma with peptide C modified microparticles that had been pre-exposed to thrombin in a buffer. Microparticle clot formation in plasma was determined turbidimetrically using the Platelet Aggregation Profiler® PAP-4 (BioData Corporation, PA) as described above.
as §1, with “HBS. Peptide C modified microparticles were pre-incubated with 0.6 U/ml thrombin for 1 h and then hirudin (10 U/ml) was added to inhibit thrombin activity. The reactions were centrifuged at 9300 g for 5 min then resuspended in HBS at 2.5 mg/ml.” for “HBS.”, “of” for “of human”, “thrombin” for “thrombin (Sigma)”

Fibrinogen [4] = molecular target: T1, Fibrinogen; experiment: Fibrinogen binding to microparticles after incubation with or without thrombin (flow cytometry); set-up: purchased Scottish National Blood Transfusion Service (SNBTS)
Protocol: (§2) Microparticles were mixed with fibrinogen solution after exposure to thrombin to confirm that fibrinogen-binding sequence is exposed by thrombin.
(§3) Microparticles at 0.7, 5 or 10 mg/ml were incubated with 0-0.64 U/mL thrombin at 37° C. after 2 min the thrombin was inhibited by the addition of hirudin (Sigma) at a final concentration of 10 U/mL. Microparticles were centrifuged at 9300 g for 5 min and resuspended in HBS to give 14 mg/mL. The microparticles were diluted 10-fold in 0.1 mg/mL human fibrinogen (Scottish National Blood Transfusion Service: SNBTS) and incubated at room temperature for 1 h. The amount of fibrinogen bound was determined by flow cytometry with a polyclonal antibody rabbit-anti-human fibrinogen-FITC (Dako Cytomation).

Fibrinogen [5] = molecular target: T1, Fibrinogen; experiment: Binding of fibrinogen to peptide-linked microspheres in absence and presence of thrombin (flow cytometry)
Protocol: Peptide A linked microspheres, and Peptide B linked microspheres were prepared as described in Example 2, and were mixed for 30 minutes with buffer or thrombin as shown in the table below:
The microspheres were then recovered by centrifuging at 1800 g for 10 minutes. The microspheres were resuspended in 100 μl Tris to give a final concentration of 5 mg/ml. 10 μl of Hirudin 100 U/ml was added to inhibit residual thrombin.
180 μl Fibrinogen at a concentration 0.1 mg/ml was added to 20 μl of Peptide A or Peptide B linked microspheres and mixed for 1 hr.
Fibrinogen binding was measured as follows. 5 μl microspheres were added to 50 μl HEPES buffer pH […] FITC labelled antibody to human fibrinogen was added and mixed for 20 minutes. The reaction was stopped with addition of 0.2% Formyl saline. Bound fluorescence was measured using a Beckman Coulter XL MCL Flow Cytometer.

[6] = molecular target: T2, human fibrinogen (Scottish National Blood Transfusion Service: SNBTS) (human, UniProt P02671 20-629; P02675 31-491; P02679 27-437, limits assumed); experiment: flow cytometry with rabbit anti-human fibrinogen-FITC on microparticles
T2 sequence (looked up) 1: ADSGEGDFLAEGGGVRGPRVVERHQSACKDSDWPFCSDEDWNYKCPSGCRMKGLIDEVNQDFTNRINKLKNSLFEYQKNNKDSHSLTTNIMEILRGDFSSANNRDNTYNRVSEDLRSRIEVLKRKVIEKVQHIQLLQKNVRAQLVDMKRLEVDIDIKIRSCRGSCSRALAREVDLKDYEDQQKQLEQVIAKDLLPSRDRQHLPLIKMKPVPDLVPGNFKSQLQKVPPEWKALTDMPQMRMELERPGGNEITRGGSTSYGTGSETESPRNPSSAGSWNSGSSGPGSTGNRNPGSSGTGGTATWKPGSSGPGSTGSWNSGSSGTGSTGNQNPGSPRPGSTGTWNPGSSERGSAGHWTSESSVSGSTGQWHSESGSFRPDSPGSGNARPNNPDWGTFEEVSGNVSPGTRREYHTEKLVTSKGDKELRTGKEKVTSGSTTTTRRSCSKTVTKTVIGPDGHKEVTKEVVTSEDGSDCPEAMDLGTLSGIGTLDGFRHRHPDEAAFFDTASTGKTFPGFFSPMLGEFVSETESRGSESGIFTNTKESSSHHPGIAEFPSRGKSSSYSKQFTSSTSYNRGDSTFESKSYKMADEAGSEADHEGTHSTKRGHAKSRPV
T2 sequence (looked up) 2: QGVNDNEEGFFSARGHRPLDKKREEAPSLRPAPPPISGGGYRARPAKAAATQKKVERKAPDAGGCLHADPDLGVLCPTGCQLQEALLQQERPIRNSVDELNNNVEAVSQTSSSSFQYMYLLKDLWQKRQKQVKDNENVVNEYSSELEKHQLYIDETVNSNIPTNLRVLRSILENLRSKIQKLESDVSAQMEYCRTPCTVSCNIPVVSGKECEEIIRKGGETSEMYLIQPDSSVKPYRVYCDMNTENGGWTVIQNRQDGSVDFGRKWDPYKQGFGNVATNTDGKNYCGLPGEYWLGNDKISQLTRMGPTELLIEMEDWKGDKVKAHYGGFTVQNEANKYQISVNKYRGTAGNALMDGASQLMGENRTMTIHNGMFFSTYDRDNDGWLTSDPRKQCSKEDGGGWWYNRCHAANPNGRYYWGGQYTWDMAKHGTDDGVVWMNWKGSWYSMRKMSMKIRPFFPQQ
T2 sequence (looked up) 3: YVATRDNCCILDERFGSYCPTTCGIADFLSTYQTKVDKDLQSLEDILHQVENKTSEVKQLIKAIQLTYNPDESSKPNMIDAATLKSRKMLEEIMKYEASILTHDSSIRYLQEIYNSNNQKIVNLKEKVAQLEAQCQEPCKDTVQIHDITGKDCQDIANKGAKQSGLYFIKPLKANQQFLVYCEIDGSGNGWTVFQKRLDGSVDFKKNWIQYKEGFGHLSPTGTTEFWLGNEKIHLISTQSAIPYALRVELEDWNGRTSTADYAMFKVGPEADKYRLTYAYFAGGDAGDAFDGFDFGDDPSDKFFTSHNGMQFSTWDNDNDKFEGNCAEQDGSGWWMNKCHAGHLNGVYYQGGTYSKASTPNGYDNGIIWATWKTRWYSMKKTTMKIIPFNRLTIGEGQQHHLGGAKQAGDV
Protocol: as §2, §3

T1 sequence (P02671 20-644 isoform P02671-2 partner limits assumed, one chain of several): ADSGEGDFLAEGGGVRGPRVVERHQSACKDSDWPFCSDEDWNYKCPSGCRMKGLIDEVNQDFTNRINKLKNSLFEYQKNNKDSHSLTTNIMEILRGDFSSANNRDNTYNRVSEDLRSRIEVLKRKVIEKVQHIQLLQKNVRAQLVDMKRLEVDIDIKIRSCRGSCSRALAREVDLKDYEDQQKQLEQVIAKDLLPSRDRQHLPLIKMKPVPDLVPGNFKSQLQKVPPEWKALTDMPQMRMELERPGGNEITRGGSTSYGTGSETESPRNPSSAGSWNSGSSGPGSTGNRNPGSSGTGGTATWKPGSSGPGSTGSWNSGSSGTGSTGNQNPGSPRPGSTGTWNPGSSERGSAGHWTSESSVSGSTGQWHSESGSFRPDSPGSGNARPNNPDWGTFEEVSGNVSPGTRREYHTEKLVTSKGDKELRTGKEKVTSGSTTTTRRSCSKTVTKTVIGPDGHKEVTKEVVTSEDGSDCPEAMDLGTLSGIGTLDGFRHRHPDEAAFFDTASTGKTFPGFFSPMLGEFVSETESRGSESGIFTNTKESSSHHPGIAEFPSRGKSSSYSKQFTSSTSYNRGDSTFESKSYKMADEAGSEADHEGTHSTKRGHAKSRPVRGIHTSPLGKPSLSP

Molecule: H2N-GPRPG^6C (H-GPRPGGGGGGC; also: cross-linked to human albumin microspheres) [Peptide B, reference compound]
- fibrinogen binding (in words) (Fibrinogen [5]; absence of thrombin): bound fibrinogen
- fibrinogen binding (in words) (Fibrinogen [5]; presence of thrombin): bound fibrinogen

B1: Peptide C (H2N-LVPRGPRPG5K-MAL), fibrinogen binding precursor peptide linked to human albumin microparticles, not exposed to thrombin (peptide)
peptide: H-LVPRGPRPGGGGGK(MAL″)
modifications: also: thioether-linked via maleimide to albumin microparticle sulphydryl
notes: Synthetic peptide immobilised on microparticles of human serum albumin; tested as the intact precursor; also called peptide C modified microparticles; microparticles modified with peptide C
- binding result [6]: no binding (tested: 0.1 mg/mL human fibrinogen)

Continued, in another order:

- amount of fibrinogen bound to microparticles (Fibrinogen [4]; increasing thrombin concentration (0-0.64 U/mL), all three microparticle concentrations): increased
- fibrinogen binding (in words) (Fibrinogen [4]; without thrombin, microparticles 0.7, 5 or 10 mg/ml): do not bind fibrinogen
Molecule: H2N-LVPRGPRPG^5K-MAL (H-LVPRGPRPGGGGGK-{MAL}; also: MAL maleimide linked to human albumin microparticles) [peptide C]
- clot formation in fibrinogen solution (Fibrinogen [1]; absence of thrombin, fibrinogen 3 mg/ml): neither blank nor microparticles modified with peptide C formed a clot
- turbidity decrease (clot formation) vs control unmodified microparticles (Fibrinogen [1]; thrombin 0.032 U/ml added at 2 min): decreased more rapidly
- clot formation in plasma vs unmodified control blank microparticles (plasma [2]; thrombin 0.25 U/ml added at the 2 min time point): accelerated clot formation
- clot formation in plasma (plasma [2]; without the addition of thrombin): did not form a clot
- electrical impedance (final aggregation) vs TCB without microparticles or blank microparticles (Thrombocytopenic blood): greater electrical impedance
- clot formation in plasma (plasma [3]; exposed to thrombin both before (0.6 U/ml, 1 h) and during (0.25 U/ml) incubation with plasma): clot formation occurs
- clot formation in plasma (plasma [3]; without thrombin exposure, over the 20 min period): did not result in clot formation

- microspheres that bound fibrinogen (Fibrinogen [5]; first incubated with thrombin (0.16 U/ml, 30 minutes), then mixed with fibrinogen): 86%
- microspheres that bound fibrinogen (Fibrinogen [5]; not previously incubated with thrombin, fibrinogen 0.1 mg/ml, 1 hr): 6%
Molecule: H2N-LVPRGPRPG^6C (H-LVPRGPRPGGGGGGC; also: cross-linked to human albumin microspheres) [Peptide A]
